Measurements published in the supplement of paper PMC9170038.

Tested on: MS2 coat protein
Assay: apparent KD of MS2 coat protein; designed switch direction (-1 OFF switch, 1 ON switch): -1; higher = weaker reporter binding
Outline: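 Normalised cluster fluorescence was curve-fitted, and each design's median over clusters is its apparent KD. Before this, SNAP-549-labelled MS2 coat protein was titrated from 0.7 or 1.5 nM, doubling to 3 µM, over RNA switches transcribed on Illumina chips by stalled E. coli RNA polymerase. Titrations had no input, 200 uM small-molecule ligand, or an oligonucleotide input, and steps lasted 0.8–1.5 h (lowest) to 10–20 min (highest).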

[1] = input ligand: microRNA oligo, concentration not stated
[2] = Eterna round: R95, input ligand: FMN 200 uM
[3] = Eterna round: R95, input ligand: microRNA oligo, concentration not stated
[4] = Eterna round: R95, input ligand: none

## UAAAAGCGAGGAUAUACAUGAGGAUCACCCAUGUGGGCAAAGUUCGCUAAGGUACCUAGUAGAAGGCGCGAAAU [Digeanin] (Eterna round: R97, puzzle: Exclusion 3)
Input ligand: FMN 200 uM
  apparent KD of MS2 coat protein: 450 nM
Input ligand: none
  apparent KD of MS2 coat protein: 63.3 nM

## UUUUUAUAUGAAGGAUAUACUUAACAUGAGGAUCACCCAUGUGGUGUUGUGAGUGAGUGAGUUUAGUAGAAGGUCAAGUAUUGU [JMF's solution 39] (Eterna round: R96, puzzle: Exclusion NG 2)
Input ligand: FMN 200 uM
  apparent KD of MS2 coat protein: 891 nM
[1]
  apparent KD of MS2 coat protein: 347 nM
Input ligand: none
  apparent KD of MS2 coat protein: 441 nM

## UUUCUUCAUAUCACAUGAGGAUCACCCAUGUUAUUCAUCGCGUAGGAUAUCGAGAUUUUUUUUUACGAGAAGGACGUAUUGAUA [JR_ExcNG3_Sub073] (Eterna round: R96, puzzle: Exclusion NG 3)
Input ligand: FMN 200 uM
  apparent KD of MS2 coat protein: 49 nM
[1]
  apparent KD of MS2 coat protein: 51.6 nM
Input ligand: none
  apparent KD of MS2 coat protein: 52.2 nM

## AGAGAGUCAGGAUAUCGAAGGUAGUGGAGAGGAGUGUGGUACGAGAAGGGACAUGAGGAUCACCCAUGUAGGAG [JR_Exclusion4)Sub008] (puzzle: Exclusion 4)
[2]
  apparent KD of MS2 coat protein: 31 nM
[3]
  apparent KD of MS2 coat protein: 35.4 nM
[4]
  apparent KD of MS2 coat protein: 33.2 nM

## CCCAGUUAGAGAGGAUAUCGUACAUGAGGAUCACCCAUGUAAUAAAUGAGGAUUUCGGGUGUCUGCGAGAAGGCUCGGAUAGGC [Ostracism 31 - Jieux - Exclusion NG 2] (Eterna round: R96, puzzle: Exclusion NG 2)
Input ligand: FMN 200 uM
  apparent KD of MS2 coat protein: 105 nM
[1]
  apparent KD of MS2 coat protein: 32.9 nM
Input ligand: none
  apparent KD of MS2 coat protein: 47 nM

## CUGGUCCGAGGAUAUAUUAAGUGAAACAUGAGGAUCACCCAUGUUAUUUGAUGGAUGAAAAUAGAAGGCGGACUAG [Mat - Exclusion 5 - JL mod - D58] (puzzle: Exclusion 5)
[2]
  apparent KD of MS2 coat protein: 22.9 nM
[3]
  apparent KD of MS2 coat protein: 41.1 nM
[4]
  apparent KD of MS2 coat protein: 45.2 nM

## AUGUGCACGCUGCGGUCCUACAUGAGGAUCACCCAUGUGGUCUGGUGGCGUGGGUCGCCGGACUUGGCUCGUCUUGA [salish99_S_TOV1_R5_029] (Eterna round: R97, puzzle: Sensor, turn-off variant 1)
Input ligand: FMN 200 uM
  apparent KD of MS2 coat protein: 17.9 nM
Input ligand: none
  apparent KD of MS2 coat protein: 18.2 nM

## UUGGUACUGGUAGGAUAUCCGUUGGAAACCGUCGGAGAAGGACCACAGUCACUGGGUCUUUGUCAAGUGGAGUGGAAGAACCAU [pwkr exNG1 F6.24] (Eterna round: R96, puzzle: Exclusion NG 1)
Input ligand: FMN 200 uM
  apparent KD of MS2 coat protein: 224 nM
[1]
  apparent KD of MS2 coat protein: 221 nM
Input ligand: none
  apparent KD of MS2 coat protein: 227 nM

## UAAAUGUGAGGAUAUUCGAAGAACACGGAGACGUGUUUUUCGGAGAAGGCACAUGAGGAUCACCCAUGUUCCUU [Mat - Exclusion 4 - JL Mod - D6] (Eterna round: R97, puzzle: Exclusion 4)
Input ligand: FMN 200 uM
  apparent KD of MS2 coat protein: 241 nM
Input ligand: none
  apparent KD of MS2 coat protein: 29.8 nM

## CGGCAUGUACAAGGAUAUCAGCACGUUUAGUGCUGAGAAGGUGUAACAUGAGGAUCACCCAUGUAGAUCAUUAACCGAUUAAUU [ENG1/9-A1] (Eterna round: R96, puzzle: Exclusion NG 1)
Input ligand: FMN 200 uM
  apparent KD of MS2 coat protein: 128 nM
[1]
  apparent KD of MS2 coat protein: 48.1 nM
Input ligand: none
  apparent KD of MS2 coat protein: 59 nM

## AGAUUUGUAGUGAGGAUAUAGGAUGAGUAGUAGUACUAGAAGGCACAUGAGGAUCACCCAUGUAAGUGAAUGAG [Exclusion 4 mod test] (Eterna round: R97, puzzle: Brourd's mod of Exclusion 4)
Input ligand: FMN 200 uM
  apparent KD of MS2 coat protein: 22.6 nM
Input ligand: none
  apparent KD of MS2 coat protein: 20.2 nM

## GAAAACGCAGAGGAUAUAUCAGAUCAAAGCUGCAUAGAAGGCUGCACAUGAGGAUCACCCAUGUGGUCUUCAAA [jl-ex6-4.01 ViennaUCT mod] (Eterna round: R97, puzzle: Exclusion 6)
Input ligand: FMN 200 uM
  apparent KD of MS2 coat protein: 243 nM
Input ligand: none
  apparent KD of MS2 coat protein: 20.9 nM

## AGUACUAACACGUCUGUGUUAGUACAAUAAGCUUGUGAAACAUGAGGAUCACCCAUGUCCUCAUAAGCUCGUCUUAU [salish99_TOv2_r3_079] (puzzle: Sensor v3, turn-off variant 2)
[2]
  apparent KD of MS2 coat protein: 17.2 nM
[3]
  apparent KD of MS2 coat protein: 749 nM
[4]
  apparent KD of MS2 coat protein: 16.1 nM

## AGUACUAACACGAAAGUGUUAGUACAAUAAGCUUGUGACACAUGAGGAUCACCCAUGUCCUCAUAAGCUCGUCUUAU [salish99_TOv2_r3_046] (puzzle: Sensor v3, turn-off variant 2)
[2]
  apparent KD of MS2 coat protein: 23.9 nM
[3]
  apparent KD of MS2 coat protein: 656 nM
[4]
  apparent KD of MS2 coat protein: 25.6 nM

## GGGUUUCCGCAGGAUAUACGAUGGCGCAAUGUAGUAGAAGGGCGGACAUGAGGAUCACCCAUGUUCGUUCCUCG [EX6 C.25] (Eterna round: R97, puzzle: Exclusion 6)
Input ligand: FMN 200 uM
  apparent KD of MS2 coat protein: 26.4 nM
Input ligand: none
  apparent KD of MS2 coat protein: 14.6 nM

## GUGAAGUGAGGAUAUACGAGAGAGGCUGAACCGGACGAGAAGUAGAAGGCACAUGAGGAUCACCCAUGUACGGG [JR_Exclu4_Sub023] (puzzle: Exclusion 4)
[3]
  apparent KD of MS2 coat protein: 164 nM

## UUUUAACAUGAGGAUCACCCAUGUGAGGAUAUGCUAUUUUUUUUUUUUUUUUUUUUUUGCAGAAGGCACAUUUU [My solution] (puzzle: Exclusion 1)
[2]
  apparent KD of MS2 coat protein: 12.5 nM
[3]
  apparent KD of MS2 coat protein: 526 nM
[4]
  apparent KD of MS2 coat protein: 26 nM

## UGUGUGAGACAGGAUAUGCUGGAUGAAAGGCAGGUAGAAGGGUCUACAUGAGGAUCACCCAUGUGGCCGGUUGG [Ex6 #73] (Eterna round: R97, puzzle: Exclusion 6)
Input ligand: FMN 200 uM
  apparent KD of MS2 coat protein: 20.6 nM
Input ligand: none
  apparent KD of MS2 coat protein: 20.4 nM

## GCUGCAAAUGUAGGAUAUCUGCACGAUUAGUGCAGAGAAGGACAUGAGGAUCACCCAUGUAGAUCAGCAGCAAUUAAUUUAAUU [ENG1/5-A1] (Eterna round: R96, puzzle: Exclusion NG 1)
Input ligand: FMN 200 uM
  apparent KD of MS2 coat protein: 413 nM
[1]
  apparent KD of MS2 coat protein: 42.1 nM
Input ligand: none
  apparent KD of MS2 coat protein: 41.5 nM

## GUAAAGUGAGGAUAUGGUAAAGUAAGUAUGUAGUAAGUAAUCCAGAAGGCACAUGAGGAUCACCCAUGUAAAUG [Mat - Exclusion 4 - D99] (puzzle: Exclusion 4)
[3]
  apparent KD of MS2 coat protein: 28.8 nM

## AUUGUUUUAGGAUAUACAUGAGGAUCACCCAUGUGUGCGAUGCGGAUCGGGAAAGCCUGUAGAAGGAAGACAUG [Eternabot (L1) Solution 74] (Eterna round: R97, puzzle: Exclusion 3)
Input ligand: FMN 200 uM
  apparent KD of MS2 coat protein: 33.4 nM
Input ligand: none
  apparent KD of MS2 coat protein: 30.8 nM

## ACUAGAUGAGGAUAUGCAUGUUUUCAUGUUCUUCUAGAUUAACAUGAGGAUCACCCAUGUAGAAGGCGUCUUUA [Exclusion 2 - 32] (puzzle: Exclusion 2)
[3]
  apparent KD of MS2 coat protein: 18.9 nM

## GCUUAACAUGUAGGAUAUGCGUGGCGAAGCUAUGCAGAAGGACAUGAGGAUCACCCAUGUUUUAGCGUCUGCGUACAGAUGCGU [JL ENG1 1.42] (Eterna round: R96, puzzle: Exclusion NG 1)
Input ligand: FMN 200 uM
  apparent KD of MS2 coat protein: 178 nM
[1]
  apparent KD of MS2 coat protein: 19.8 nM
Input ligand: none
  apparent KD of MS2 coat protein: 22.4 nM

## AAGAAGCUGAGAGGAUAUGGAGCCGAAACGGAGCUAGAAGGCUUUGCAGAAAGACAUGAGGAUCACCCAUGUUCAUGUAGAGAA [AK ExNG1-1.3] (Eterna round: R96, puzzle: Exclusion NG 1)
Input ligand: FMN 200 uM
  apparent KD of MS2 coat protein: 15.2 nM
[1]
  apparent KD of MS2 coat protein: 12.6 nM
Input ligand: none
  apparent KD of MS2 coat protein: 18.4 nM

## UCGUUCCGUGUAGGAUAUUGGCCUGCUCUGGGUCGAGAAGGACAUGAGGAUCACCCAUGUAUGUUAUUAUCACGCGUGGCGCAU [Design 81] (Eterna round: R96, puzzle: Exclusion NG 1)
Input ligand: FMN 200 uM
  apparent KD of MS2 coat protein: 61.7 nM
[1]
  apparent KD of MS2 coat protein: 22.9 nM
Input ligand: none
  apparent KD of MS2 coat protein: 31.8 nM

## UGAUCUAGCGGAGGAUAUACAUGAGGAUCACCCAUGUAUAGUCUAUGACCGUAGUCGUGGACCGUGUAGAAGGCCGCUAGAUCU [JL ENG2 3.77] (Eterna round: R96, puzzle: Exclusion NG 2)
Input ligand: FMN 200 uM
  apparent KD of MS2 coat protein: 16.5 nM
[1]
  apparent KD of MS2 coat protein: 11.4 nM
Input ligand: none
  apparent KD of MS2 coat protein: 11 nM

## CUCUAGUCAGGAUAUUAGUUGCCGCCUGGACACAAGCGGCAUGAGAAGGGACUUGAGGAUCACCCAAGUAAAAG [Tibela] (Eterna round: R97, puzzle: Exclusion 4)
Input ligand: FMN 200 uM
  apparent KD of MS2 coat protein: 2850 nM
Input ligand: none
  apparent KD of MS2 coat protein: 393 nM

## UAAGAUUACCGAGGAUAUGCUGGUUUCUCUUAAGCAGAAGGCGGACUCAACAUGAGGAUCACCCAUGUAAGAAGGGUAUUAGAU [Ex NG1 #10] (Eterna round: R96, puzzle: Exclusion NG 1)
Input ligand: FMN 200 uM
  apparent KD of MS2 coat protein: 85.9 nM
[1]
  apparent KD of MS2 coat protein: 78.6 nM
Input ligand: none
  apparent KD of MS2 coat protein: 116 nM

## CUGUGUCCGCAGGAUAUGUCAUCCUGAAGGAUCACAGAAGGGCGGACAUGAGGAUCACCCAUGUGAGCCAAAGA [EX6 A.11] (Eterna round: R97, puzzle: Exclusion 6)
Input ligand: FMN 200 uM
  apparent KD of MS2 coat protein: 16.7 nM
Input ligand: none
  apparent KD of MS2 coat protein: 17.9 nM

## UCGGCGUCAGGAUAUCCAAUAUAUGACAUGAGGAUCACCCAUGUUUCCACUCGUACCUCCGGAGAAGGGACGAAUU [Ex5 #92] (Eterna round: R97, puzzle: Exclusion 5)
Input ligand: FMN 200 uM
  apparent KD of MS2 coat protein: 33.5 nM
Input ligand: none
  apparent KD of MS2 coat protein: 32.1 nM

## GUAAUGUCCGAGGAUAUCCUUCUAAAUAUAUAUGGAGAAGGCGGUACAUGAGGAUCACCCAUGUCCAAAAUGGG [Parada] (Eterna round: R97, puzzle: Exclusion 6)
Input ligand: FMN 200 uM
  apparent KD of MS2 coat protein: 229 nM
Input ligand: none
  apparent KD of MS2 coat protein: 1680 nM

## GUGUACGGAGGAUAUAUGUGGGCAGCAUACGCUGCAGCUUCACAUGAGGAUCACCCAUGUAGAAGGCUGUACAC [Mat - Exclusion 2 - Mod of Hyphema - D102] (puzzle: Exclusion 2)
[3]
  apparent KD of MS2 coat protein: 21.4 nM

## AUUAUUACAUAGGAUAUAAAAGAGCUCACUCAGUUAGAAGGAUGUACAUGAGGAUCACCCAUGUGAUUCUGGCU [Eternabot (L2) Solution 58] (Eterna round: R97, puzzle: Exclusion 6)
Input ligand: FMN 200 uM
  apparent KD of MS2 coat protein: 26.3 nM
Input ligand: none
  apparent KD of MS2 coat protein: 25.2 nM

## AUAAUGUCAGGAUAUCAGUCGACUAGCUUCGGCUAGUCGACUGAGAAGGGACAUGAGGAUCACCCAUGUAGAUC [E4/18-A1] (Eterna round: R97, puzzle: Exclusion 4)
Input ligand: FMN 200 uM
  apparent KD of MS2 coat protein: 267 nM
Input ligand: none
  apparent KD of MS2 coat protein: 1120 nM
